“And” between values parts separate entries of the source, which are not always exact repeats. Equal values may be shown once.

To fix the notation:
B1: large subunit of carbamoyl phosphate synthase (CPS) from Escherichia coli (enzyme)
chain: MPKRTDIKSILILGAGPIVIGQACEFDYSGAQACKALREEGYRVILVNSNPATIMTDPEMADATYIEPIHWEVVRKIIEKERPDAVLPTMGGQTALNCALELERQGVLEEFGVTMIGATADAIDKAEDRRRFDVAMKKIGLETARSGIAHTMEEALAVAADVGFPCIIRPSFTMGGSGGGIAYNREEFEEICARGLDLSPTKELLIDESLIGWKEYEMEVVRDKNDNCIIVCSIENFDAMGIHTGDSITVAPAQTLTDKEYQIMRNASMAVLREIGVETGGSNVQFAVNPKNGRLIVIEMNPRVSRSSALASKATGFPIAKVAAKLAVGYTLDELMNDITGGRTPASFEPSIDYVVTKIPRFNFEKFAGANDRLTTQMKSVGEVMAIGRTQQESLQKALRGLEVGATGFDPKVSLDDPEALTKIRRELKDAGADRIWYIADAFRAGLSVDGVFNLTNIDRWFLVQIEELVRLEEKVAEVGITGLNADFLRQLKRKGFADARLAKLAGVREAEIRKLRDQYDLHPVYKRVDTCAAEFATDTAYMYSTYEEECEANPSTDREKIMVLGGGPNRIGQGIEFDYCCVHASLALREDGYETIMVNCNPETVSTDYDTSDRLYFEPVTLEDVLEIVRIEKPKGVIVQYGGQTPLKLARALEAAGVPVIGTSPDAIDRAEDRERFQHAVERLKLKQPANATVTAIEMAVEKAKEIGYPLVVRPSYVLGGRAMEIVYDEADLRRYFQTAVSVSNDAPVLLDHFLDDAVEVDVDAICDGEMVLIGGIMEHIEQAGVHSGDSACSLPAYTLSQEIQDVMRQQVQKLAFELQVRGLMNVQFAVKNNEVYLIEVNPRAARTVPFVSKATGVPLAKVAARVMAGKSLAEQGVTKEVIPPYYSVKEVVLPFNKFPGVDPLLGPEMRSTGEVMGVGRTFAEAFAKAQLGSNSTMKKHGRALLSVREGDKERVVDLAAKLLKQGFELDATHGTAIVLGEAGINPRLVNKVHEGRPHIQDRIKNGEYTYIINTTSGRRAIEDSRVIRRSALQYKVHYDTTLNGGFATAMALNADATEKVISVQEMHAQIK
notes: carbamoyl phosphate synthase large subunit, Escherichia coli; also called large CPS subunit
B2: small subunit of carbamoyl phosphate synthase (CPS) from Escherichia coli (enzyme)
chain: MIKSALLVLEDGTQFHGRAIGATGSAVGEVVFNTSMTGYQEILTDPSYSRQIVTLTYPHIGNVGTNDADEESSQVHAQGLVIRDLPLIASNFRNTEDLSSYLKRHNIVAIADIDTRKLTRLLREKGAQNGCIIAGDNPDAALALEKARAFPGLNGMDLAKEVTTAEAYSWTQGSWTLTGGLPEAKKEDELPFHVVAYDFGAKRNILRMLVDRGCRLTIVPAQTSAEDVLKMNPDGIFLSNGPGDPAPCDYAITAIQKFLETDIPVFGICLGHQLLALASGAKTVKMKFGHHGGNHPVKDVEKNVVMITAQNHGFAVDEATLPANLRVTHKSLFDGTLQGIHRTDKPAFSFQGHPEASPGPHDAAPLFDHFIELIEQYRKTAK
notes: carbamoyl phosphate synthase small subunit, Escherichia coli; also called small CPS subunit

The target in data set [1] is RvB2 subunit of the RvB1/B2 complex from Chaetomium thermophilum (Chaetomium thermophilum). Nature of the data set: native MS; purified complex exchanged into 200 mM ammonium acetate, nano-electrospray, Q-ToF instrument; intact complexes and sub-complexes.
Data set [2] concerns the molecule itself. The data set is described as follows: cross-linking; purified complex with BS3 (0.5-5 mM titrated), 25 °C, 1 h; SDS-PAGE, in-gel trypsin digestion, LC-MS/MS, pLink search.
Data set [3] addresses B1. Nature of the data set: native MS; purified complex exchanged into 200 mM ammonium acetate, nano-electrospray, Q-ToF instrument; intact complexes and sub-complexes. The conditions noted are these: both partners purified.

Take “RvB1 subunit of the RvB1/B2 complex from Chaetomium thermophilum (natural protein)”: in data set [1], the stoichiometry N (RvB1 per RvB2 (3:3)) is 1 and the stoichiometry N (RvB1 per RvB2 (6:6)) amounted to 1.
In the case of B1, the binding result in data set [2] was “binds”.
As usually defined, the stoichiometry N is a count of units in the complex or per binding partner. In the case of B2, the “stoichiometry N” value in data set [3] is 1 small per large subunit (1:1) and 1 small per large subunit (2:2).
